The record followed here is patent US20220010021A1 (Sanofi, published 2022).

One test concerns the target T1, human beta-Klotho (KLB) (human, UniProt Q86Z14 53-997).
T1 construct: Bought soluble protein; also called human KLB; ß-Klotho
T1 sequence (looked up): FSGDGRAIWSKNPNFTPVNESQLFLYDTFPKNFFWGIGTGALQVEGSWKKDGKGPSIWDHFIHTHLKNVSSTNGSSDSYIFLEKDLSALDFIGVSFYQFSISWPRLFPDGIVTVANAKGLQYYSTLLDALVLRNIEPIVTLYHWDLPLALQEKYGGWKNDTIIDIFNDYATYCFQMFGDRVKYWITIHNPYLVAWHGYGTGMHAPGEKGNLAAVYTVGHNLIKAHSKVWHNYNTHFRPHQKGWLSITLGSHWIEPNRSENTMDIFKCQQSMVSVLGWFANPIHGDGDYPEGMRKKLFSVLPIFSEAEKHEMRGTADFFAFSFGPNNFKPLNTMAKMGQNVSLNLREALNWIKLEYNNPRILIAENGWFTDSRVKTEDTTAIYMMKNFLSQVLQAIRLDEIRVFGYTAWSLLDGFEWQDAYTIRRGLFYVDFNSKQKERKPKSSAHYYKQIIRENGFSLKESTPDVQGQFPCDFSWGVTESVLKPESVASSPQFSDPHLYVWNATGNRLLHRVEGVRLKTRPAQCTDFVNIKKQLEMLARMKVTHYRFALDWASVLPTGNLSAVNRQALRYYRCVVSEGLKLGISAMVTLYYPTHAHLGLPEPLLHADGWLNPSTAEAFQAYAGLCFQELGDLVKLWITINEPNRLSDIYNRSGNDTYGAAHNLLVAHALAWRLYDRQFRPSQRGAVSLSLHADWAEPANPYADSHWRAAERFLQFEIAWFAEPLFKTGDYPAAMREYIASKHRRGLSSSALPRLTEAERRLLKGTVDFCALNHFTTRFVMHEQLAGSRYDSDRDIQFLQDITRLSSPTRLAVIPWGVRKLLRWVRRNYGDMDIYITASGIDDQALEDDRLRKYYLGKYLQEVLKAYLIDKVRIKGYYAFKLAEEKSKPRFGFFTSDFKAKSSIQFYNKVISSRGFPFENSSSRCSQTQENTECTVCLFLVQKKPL
The test is described as follows: BLI off-rate screen, supernatant.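 Also: expression supernatants tested at 25 µg/mL, dissociation followed for 1800 s in D-PBS with 0.1% BSA.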

Test [1] has as its target cell surface receptor composed of FGFR1c and co-receptor beta-Klotho (KLB) (human, UniProt P11362 22-822; Q86Z14 1-1044). Briefly: cell-based or functional assay. As to Mean E max, Luciferase reporter gene assay: reference of the scale not given here.

cell surface receptor composed of FGFR1c and co-receptor beta-Klotho (KLB), sequence (P11362 22-822, chain 1 of 2): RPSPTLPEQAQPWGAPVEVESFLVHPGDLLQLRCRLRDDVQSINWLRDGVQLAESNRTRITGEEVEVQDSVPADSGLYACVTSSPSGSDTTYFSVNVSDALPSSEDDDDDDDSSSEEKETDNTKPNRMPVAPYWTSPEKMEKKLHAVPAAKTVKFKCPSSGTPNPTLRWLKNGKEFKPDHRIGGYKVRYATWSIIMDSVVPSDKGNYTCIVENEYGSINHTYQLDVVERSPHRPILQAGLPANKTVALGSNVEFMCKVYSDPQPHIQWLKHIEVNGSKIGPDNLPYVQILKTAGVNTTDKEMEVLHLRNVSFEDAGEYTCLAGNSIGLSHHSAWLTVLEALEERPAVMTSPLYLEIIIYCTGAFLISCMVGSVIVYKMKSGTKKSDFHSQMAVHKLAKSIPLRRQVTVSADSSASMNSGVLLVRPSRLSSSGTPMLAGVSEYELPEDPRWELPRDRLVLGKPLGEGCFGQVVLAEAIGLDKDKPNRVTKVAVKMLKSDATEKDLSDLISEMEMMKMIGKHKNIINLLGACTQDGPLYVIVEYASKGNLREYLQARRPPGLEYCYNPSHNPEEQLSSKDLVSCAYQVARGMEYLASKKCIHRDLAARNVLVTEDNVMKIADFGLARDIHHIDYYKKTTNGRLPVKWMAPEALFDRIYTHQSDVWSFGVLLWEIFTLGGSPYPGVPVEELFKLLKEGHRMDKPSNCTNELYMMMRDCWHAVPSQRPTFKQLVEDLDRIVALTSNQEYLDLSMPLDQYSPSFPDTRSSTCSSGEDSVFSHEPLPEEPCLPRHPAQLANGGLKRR
cell surface receptor composed of FGFR1c and co-receptor beta-Klotho (KLB), sequence (Q86Z14 whole entry, chain 2 of 2): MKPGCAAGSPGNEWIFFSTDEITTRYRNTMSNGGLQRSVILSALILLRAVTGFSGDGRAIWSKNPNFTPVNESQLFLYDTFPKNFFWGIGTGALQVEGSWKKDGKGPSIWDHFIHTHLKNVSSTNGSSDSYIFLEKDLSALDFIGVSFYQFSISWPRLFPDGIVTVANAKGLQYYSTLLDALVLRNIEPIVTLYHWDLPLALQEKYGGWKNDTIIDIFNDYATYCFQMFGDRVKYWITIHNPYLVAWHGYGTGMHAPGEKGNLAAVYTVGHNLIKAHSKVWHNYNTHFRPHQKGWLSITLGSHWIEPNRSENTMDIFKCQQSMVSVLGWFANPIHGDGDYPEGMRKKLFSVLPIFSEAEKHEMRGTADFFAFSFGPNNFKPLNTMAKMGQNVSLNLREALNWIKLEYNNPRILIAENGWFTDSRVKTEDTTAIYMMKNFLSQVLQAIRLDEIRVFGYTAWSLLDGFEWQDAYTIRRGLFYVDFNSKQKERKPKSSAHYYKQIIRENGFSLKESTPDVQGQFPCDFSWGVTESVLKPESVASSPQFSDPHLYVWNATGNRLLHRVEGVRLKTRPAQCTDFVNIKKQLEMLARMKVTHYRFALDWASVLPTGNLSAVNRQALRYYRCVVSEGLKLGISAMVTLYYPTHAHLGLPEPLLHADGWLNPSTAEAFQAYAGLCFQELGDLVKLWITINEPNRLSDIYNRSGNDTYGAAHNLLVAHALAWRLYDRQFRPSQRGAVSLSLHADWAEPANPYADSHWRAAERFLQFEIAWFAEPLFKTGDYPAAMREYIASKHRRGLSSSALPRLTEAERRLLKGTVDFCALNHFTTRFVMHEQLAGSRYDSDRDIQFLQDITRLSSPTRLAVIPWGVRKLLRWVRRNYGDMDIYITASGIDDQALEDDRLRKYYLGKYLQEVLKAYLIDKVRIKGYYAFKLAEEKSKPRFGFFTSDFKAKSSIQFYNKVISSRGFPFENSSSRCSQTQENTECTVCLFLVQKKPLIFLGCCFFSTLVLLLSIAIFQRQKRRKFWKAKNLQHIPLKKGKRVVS

B1: 16H7 light chain variant E30L (antibody, V domains shown)
VH: not shown
VL: SYVLTQPPSVSVAPGQTARITCGGNNIGSLSVHWYQQKPGQAPVLVVYDDSDRPSGIPERFSGSNSGNTATLTISRVEAGDEADYYCQVWDGNSDHVVFGGGTKLTVLG
notes: copies: 2 + 2
One may read the koff as the first-order rate constant of dissociation. Low values mean slow dissociation, high ones fast dissociation. With B1, the koff in the test with human beta-Klotho (KLB) turned out to be 6.9e-05 s⁻¹. Moreover, in test [1], the “Mean E max, Luciferase reporter gene assay” value (“Mean E max” for short) was determined as 96% and the “Mean EC50, Luciferase reporter gene assay” value (“Mean EC50” for short) was 0.16 nM.

B2: 16H7 light chain variant E30N (antibody, V domains shown)
VH: not shown
VL: SYVLTQPPSVSVAPGQTARITCGGNNIGSNSVHWYQQKPGQAPVLVVYDDSDRPSGIPERFSGSNSGNTATLTISRVEAGDEADYYCQVWDGNSDHVVFGGGTKLTVLG
notes: copies: 2 + 2
In the test with human beta-Klotho (KLB), B2 had a koff of 2.4e-05 s⁻¹. Moreover, in test [1], the “Mean E max” value turned out to be 110% and the “Mean EC50” value was 0.163 nM.

B3: 16H7 light chain variant E30Q (antibody, V domains shown)
VH: not shown
VL: SYVLTQPPSVSVAPGQTARITCGGNNIGSQSVHWYQQKPGQAPVLVVYDDSDRPSGIPERFSGSNSGNTATLTISRVEAGDEADYYCQVWDGNSDHVVFGGGTKLTVLG
notes: copies: 2 + 2
B3 displayed a koff with human beta-Klotho (KLB) of 1e-07 s⁻¹. Further, in test [1], the “Mean E max” value was found to be 99% and the “Mean EC50” value is 0.123 nM.

B4: 16H7 light chain variant E30V (antibody, V domains shown)
VH: not shown
VL: SYVLTQPPSVSVAPGQTARITCGGNNIGSVSVHWYQQKPGQAPVLVVYDDSDRPSGIPERFSGSNSGNTATLTISRVEAGDEADYYCQVWDGNSDHVVFGGGTKLTVLG
notes: copies: 2 + 2
Regarding B4, the koff in the test with human beta-Klotho (KLB) is 4.1e-05 s⁻¹. In addition, in test [1], the “Mean E max” value worked out at 108% and the “Mean EC50” value amounted to 0.14 nM.

B5: 16H7 light chain variant G28F (antibody, human IgG4 S228P, lambda, V domains shown)
VH: not shown
VL: SYVLTQPPSVSVAPGQTARITCGGNNIFSESVHWYQQKPGQAPVLVVYDDSDRPSGIPERFSGSNSGNTATLTISRVEAGDEADYYCQVWDGNSDHVVFGGGTKLTVLG
B5: the koff with human beta-Klotho (KLB) came out at 3.9e-05 s⁻¹. In test [1], the “Mean E max” value came out at 102% and the “Mean EC50” value was 0.124 nM.

B6: 16H7 light chain variant G28D (antibody, human IgG4 S228P, lambda, V domains shown)
VH: not shown
VL: SYVLTQPPSVSVAPGQTARITCGGNNIDSESVHWYQQKPGQAPVLVVYDDSDRPSGIPERFSGSNSGNTATLTISRVEAGDEADYYCQVWDGNSDHVVFGGGTKLTVLG
Regarding B6, in the test with human beta-Klotho (KLB), the koff turned out to be 4e-05 s⁻¹. For the same molecule, in test [1], the “Mean E max” value turned out to be 107% and the “Mean EC50” value was found to be 0.126 nM.

B7: 16H7 light chain variant E30T (antibody, V domains shown)
VH: not shown
VL: SYVLTQPPSVSVAPGQTARITCGGNNIGSTSVHWYQQKPGQAPVLVVYDDSDRPSGIPERFSGSNSGNTATLTISRVEAGDEADYYCQVWDGNSDHVVFGGGTKLTVLG
notes: copies: 2 + 2
B7 showed a koff with human beta-Klotho (KLB) of 4.9e-05 s⁻¹. For the same molecule, in test [1], the “Mean E max” value is 100% and the “Mean EC50” value worked out at 0.105 nM.

B8: 16H7 light chain variant G28I (antibody, human IgG4 S228P, lambda, V domains shown)
VH: not shown
VL: SYVLTQPPSVSVAPGQTARITCGGNNIISESVHWYQQKPGQAPVLVVYDDSDRPSGIPERFSGSNSGNTATLTISRVEAGDEADYYCQVWDGNSDHVVFGGGTKLTVLG
As for B8, in the test with human beta-Klotho (KLB), the koff came out at 3.3e-05 s⁻¹. Also, in test [1], the “Mean E max” value was 112% and the “Mean EC50” value was determined as 0.132 nM.

B9: 16H7 light chain variant G28P (antibody, human IgG4 S228P, lambda, V domains shown)
VH: not shown
VL: SYVLTQPPSVSVAPGQTARITCGGNNIPSESVHWYQQKPGQAPVLVVYDDSDRPSGIPERFSGSNSGNTATLTISRVEAGDEADYYCQVWDGNSDHVVFGGGTKLTVLG
Molecule B9 gave a koff with human beta-Klotho (KLB) of 6.2e-05 s⁻¹. For the same molecule, in test [1], the “Mean E max” value was 103% and the “Mean EC50” value amounted to 0.132 nM.

B10: 16H7 light chain variant G28R (antibody, human IgG4 S228P, lambda, V domains shown)
VH: not shown
VL: SYVLTQPPSVSVAPGQTARITCGGNNIRSESVHWYQQKPGQAPVLVVYDDSDRPSGIPERFSGSNSGNTATLTISRVEAGDEADYYCQVWDGNSDHVVFGGGTKLTVLG
B10: the koff with human beta-Klotho (KLB) turned out to be 8.5e-05 s⁻¹. In test [1], the “Mean E max” value stood at 102% and the “Mean EC50” value amounted to 0.138 nM.

B11: 16H7 light chain variant G28E (antibody, human IgG4 S228P, lambda, V domains shown)
VH: not shown
VL: SYVLTQPPSVSVAPGQTARITCGGNNIESESVHWYQQKPGQAPVLVVYDDSDRPSGIPERFSGSNSGNTATLTISRVEAGDEADYYCQVWDGNSDHVVFGGGTKLTVLG
B11: the koff with human beta-Klotho (KLB) came to 1.8e-05 s⁻¹. In test [1], the “Mean E max” value amounted to 105% and the “Mean EC50” value worked out at 0.12 nM.

B12: 16H7 light chain variant G28H (antibody, human IgG4 S228P, lambda, V domains shown)
VH: not shown
VL: SYVLTQPPSVSVAPGQTARITCGGNNIHSESVHWYQQKPGQAPVLVVYDDSDRPSGIPERFSGSNSGNTATLTISRVEAGDEADYYCQVWDGNSDHVVFGGGTKLTVLG
For B12, the koff with human beta-Klotho (KLB) turned out to be 1.8e-05 s⁻¹. In test [1], the “Mean E max” value amounted to 108% and the “Mean EC50” value came to 0.165 nM.

B13: 16H7 light chain variant G28N (antibody, human IgG4 S228P, lambda, V domains shown)
VH: not shown
VL: SYVLTQPPSVSVAPGQTARITCGGNNINSESVHWYQQKPGQAPVLVVYDDSDRPSGIPERFSGSNSGNTATLTISRVEAGDEADYYCQVWDGNSDHVVFGGGTKLTVLG
Molecule B13 had a koff with human beta-Klotho (KLB) of 1.8e-05 s⁻¹. For the same molecule, in test [1], the “Mean E max” value was 113% and the “Mean EC50” value turned out to be 0.111 nM.

B14: 16H7 light chain variant E30M (antibody, V domains shown)
VH: not shown
VL: SYVLTQPPSVSVAPGQTARITCGGNNIGSMSVHWYQQKPGQAPVLVVYDDSDRPSGIPERFSGSNSGNTATLTISRVEAGDEADYYCQVWDGNSDHVVFGGGTKLTVLG
notes: copies: 2 + 2
On to B14, for which the koff with human beta-Klotho (KLB) was 3.8e-05 s⁻¹. Further, in test [1], the “Mean E max” value was determined as 100% and the “Mean EC50” value worked out at 0.12 nM.

B15: 16H7 light chain variant E30Y (antibody, V domains shown)
VH: not shown
VL: SYVLTQPPSVSVAPGQTARITCGGNNIGSYSVHWYQQKPGQAPVLVVYDDSDRPSGIPERFSGSNSGNTATLTISRVEAGDEADYYCQVWDGNSDHVVFGGGTKLTVLG
notes: copies: 2 + 2
As for B15, the koff in the test with human beta-Klotho (KLB) was 7.6e-05 s⁻¹. In addition, in test [1], the “Mean E max” value came out at 107% and the “Mean EC50” value stood at 0.152 nM.

B16: 16H7 light chain variant G28C (antibody, human IgG4 S228P, lambda, V domains shown)
VH: not shown
VL: SYVLTQPPSVSVAPGQTARITCGGNNICSESVHWYQQKPGQAPVLVVYDDSDRPSGIPERFSGSNSGNTATLTISRVEAGDEADYYCQVWDGNSDHVVFGGGTKLTVLG
In the test with human beta-Klotho (KLB), B16 had a koff of 9.1e-06 s⁻¹. In addition, in test [1], the “Mean E max” value came out at 100% and the “Mean EC50” value came to 0.103 nM.

B17: 16H7 light chain variant G28L (antibody, human IgG4 S228P, lambda, V domains shown)
VH: not shown
VL: SYVLTQPPSVSVAPGQTARITCGGNNILSESVHWYQQKPGQAPVLVVYDDSDRPSGIPERFSGSNSGNTATLTISRVEAGDEADYYCQVWDGNSDHVVFGGGTKLTVLG
Regarding B17, in the test with human beta-Klotho (KLB), the koff came out at 6.1e-06 s⁻¹. Moreover, in test [1], the “Mean E max” value came to 104% and the “Mean EC50” value turned out to be 0.137 nM.

B18: 16H7 light chain variant G28S (antibody, human IgG4 S228P, lambda, V domains shown)
VH: not shown
VL: SYVLTQPPSVSVAPGQTARITCGGNNISSESVHWYQQKPGQAPVLVVYDDSDRPSGIPERFSGSNSGNTATLTISRVEAGDEADYYCQVWDGNSDHVVFGGGTKLTVLG
For the molecule B18, in the test with human beta-Klotho (KLB), the koff is 2.3e-06 s⁻¹. In addition, in test [1], the “Mean E max” value stood at 109% and the “Mean EC50” value was found to be 0.14 nM.

B19: 16H7 light chain variant G28K (antibody, human IgG4 S228P, lambda, V domains shown)
VH: not shown
VL: SYVLTQPPSVSVAPGQTARITCGGNNIKSESVHWYQQKPGQAPVLVVYDDSDRPSGIPERFSGSNSGNTATLTISRVEAGDEADYYCQVWDGNSDHVVFGGGTKLTVLG
On to B19, for which the off-rate constant (koff) with human beta-Klotho (KLB) was 3.3e-05 s⁻¹. Moreover, in test [1], the “Mean E max” value was 108% and the “Mean EC50” value stood at 0.149 nM.

B20: 16H7 light chain variant E30R (antibody, V domains shown)
VH: not shown
VL: SYVLTQPPSVSVAPGQTARITCGGNNIGSRSVHWYQQKPGQAPVLVVYDDSDRPSGIPERFSGSNSGNTATLTISRVEAGDEADYYCQVWDGNSDHVVFGGGTKLTVLG
notes: copies: 2 + 2
For the molecule B20, the koff with human beta-Klotho (KLB) worked out at 3.7e-05 s⁻¹. Moreover, in test [1], the “Mean E max” value came to 96% and the “Mean EC50” value was 0.162 nM.

B21: 16H7 light chain variant E30S (antibody, human IgG4 S228P, lambda, V domains shown)
VH: not shown
VL: SYVLTQPPSVSVAPGQTARITCGGNNIGSSSVHWYQQKPGQAPVLVVYDDSDRPSGIPERFSGSNSGNTATLTISRVEAGDEADYYCQVWDGNSDHVVFGGGTKLTVLG
Turning to B21, in the test with human beta-Klotho (KLB), the koff came to 1.6e-05 s⁻¹. Further, in test [1], the “Mean E max” value worked out at 114% and the “Mean EC50” value stood at 0.132 nM.
